Columns and labels:
Core_NNNN-es_KKEE = molecular target: T1, Core_NNNN-es_KKEE; assay: two-hybrid library CCmax; details: mean of both orientations;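 also: natural log of median RNA to DNA barcode read ratio; higher means stronger binding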
T1 chain: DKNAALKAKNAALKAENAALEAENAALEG

Core_INII-es_KEKK = molecular target: T2, Core_INII-es_KEKK; assay: two-hybrid library CCmax; details: mean of both orientations;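 also: natural log of median RNA to DNA barcode read ratio; higher means stronger binding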
T2 chain: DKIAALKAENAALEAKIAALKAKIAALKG

Core_INNN-es_KKEK = molecular target: T3, Core_INNN-es_KKEK; assay: two-hybrid library CCmax; details: mean of both orientations;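 also: natural log of median RNA to DNA barcode read ratio; higher means stronger binding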
T3 chain: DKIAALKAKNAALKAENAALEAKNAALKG

Core_INNI-es_KKEK = molecular target: T4, Core_INNI-es_KKEK; assay: two-hybrid library CCmax; details: mean of both orientations;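 also: natural log of median RNA to DNA barcode read ratio; higher means stronger binding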
T4 chain: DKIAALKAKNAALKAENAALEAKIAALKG

Core_ININ-es_KKEE = molecular target: T5, Core_ININ-es_KKEE; assay: two-hybrid library CCmax; details: mean of both orientations;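 also: natural log of median RNA to DNA barcode read ratio; higher means stronger binding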
T5 chain: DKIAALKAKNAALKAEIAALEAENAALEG

Core_IINN-es_KKKE = molecular target: T6, Core_IINN-es_KKKE; assay: two-hybrid library CCmax; details: mean of both orientations;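 also: natural log of median RNA to DNA barcode read ratio; higher means stronger binding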
T6 chain: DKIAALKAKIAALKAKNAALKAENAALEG

P4SC1 [1] = molecular target: T7, P4SC1; assay: two-hybrid library CCNG1
T7 chain: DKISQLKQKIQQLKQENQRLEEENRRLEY

P4SC1 [2] = molecular target: T7, P4SC1; assay: two-hybrid library CCmax; details: mean of both orientations
Core_IINN-es_KEEK = molecular target: T8, Core_IINN-es_KEEK; assay: two-hybrid library CCmax; details: mean of both orientations
T8 chain: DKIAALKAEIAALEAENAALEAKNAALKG

Core_INNN-es_KKKK = molecular target: T9, Core_INNN-es_KKKK; assay: two-hybrid library CCmax; details: mean of both orientations
T9 chain: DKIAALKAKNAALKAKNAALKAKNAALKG

Core_INNN-es_KKKE = molecular target: T10, Core_INNN-es_KKKE; assay: two-hybrid library CCmax; details: mean of both orientations
T10 chain: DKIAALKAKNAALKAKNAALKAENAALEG

Core_INII-es_KEEE = molecular target: T11, Core_INII-es_KEEE; assay: two-hybrid library CCmax; details: mean of both orientations
T11 chain: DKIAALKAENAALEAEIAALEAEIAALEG

4H2721-AA = molecular target: T12, 4H2721-AA; assay: two-hybrid library CCmax; details: mean of both orientations
T12 chain: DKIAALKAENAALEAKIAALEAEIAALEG

4H1802-AA = molecular target: T13, 4H1802-AA; assay: two-hybrid library CCmax; details: mean of both orientations
T13 chain: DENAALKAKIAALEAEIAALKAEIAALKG

4H355-AA = molecular target: T14, 4H355-AA; assay: two-hybrid library CCmax; details: mean of both orientations
T14 chain: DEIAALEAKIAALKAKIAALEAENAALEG

4H58-AA = molecular target: T15, 4H58-AA; assay: two-hybrid library CCmax; details: mean of both orientations
T15 chain: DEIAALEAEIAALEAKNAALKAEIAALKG

4H2750-AA = molecular target: T16, 4H2750-AA; assay: two-hybrid library CCmax; details: mean of both orientations
T16 chain: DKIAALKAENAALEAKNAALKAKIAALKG

4H3651-AA = molecular target: T17, 4H3651-AA; assay: two-hybrid library CCmax; details: mean of both orientations
T17 chain: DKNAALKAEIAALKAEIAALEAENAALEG

4H486-AA = molecular target: T18, 4H486-AA; assay: two-hybrid library CCmax; details: mean of both orientations
T18 chain: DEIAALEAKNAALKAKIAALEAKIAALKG

4H2600-AA = molecular target: T19, 4H2600-AA; assay: two-hybrid library CCmax; details: mean of both orientations
T19 chain: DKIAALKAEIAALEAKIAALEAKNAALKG

4H1257-AA = molecular target: T20, 4H1257-AA; assay: two-hybrid library CCmax; details: mean of both orientations
T20 chain: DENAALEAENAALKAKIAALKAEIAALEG

4H3705-AA = molecular target: T21, 4H3705-AA; assay: two-hybrid library CCmax; details: mean of both orientations
T21 chain: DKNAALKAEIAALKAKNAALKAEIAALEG

4H140-AA = molecular target: T22, 4H140-AA; assay: two-hybrid library CCmax; details: mean of both orientations
T22 chain: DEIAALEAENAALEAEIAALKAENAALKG

4H1110-AA = molecular target: T23, 4H1110-AA; assay: two-hybrid library CCmax
T23 chain: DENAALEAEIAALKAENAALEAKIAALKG

4H_APH = molecular target: T24, 4H_APH; assay: two-hybrid library CCmax; details: mean of both orientations
T24 chain: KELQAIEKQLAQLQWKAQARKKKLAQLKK

4H_BCR = molecular target: T25, 4H_BCR; assay: two-hybrid library CCmax; details: mean of both orientations
T25 chain: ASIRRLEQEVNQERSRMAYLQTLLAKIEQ

4H465-AA = molecular target: T26, 4H465-AA; assay: two-hybrid library CCmax; details: mean of both orientations
T26 chain: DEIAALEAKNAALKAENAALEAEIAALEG

4H_GCN4 = assay: two-hybrid library CCmax
4H3782-AA = molecular target: T27, 4H3782-AA; assay: two-hybrid library CCmax; details: mean of both orientations
T27 chain: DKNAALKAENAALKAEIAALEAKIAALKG

4H3365-AA = molecular target: T28, 4H3365-AA; assay: two-hybrid library CCmax; details: mean of both orientations
T28 chain: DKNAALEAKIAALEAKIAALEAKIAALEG

4H3020-AA = molecular target: T29, 4H3020-AA; assay: two-hybrid library CCmax; details: mean of both orientations
T29 chain: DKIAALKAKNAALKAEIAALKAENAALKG

4H895-AA = molecular target: T30, 4H895-AA; assay: two-hybrid library CCmax; details: mean of both orientations
T30 chain: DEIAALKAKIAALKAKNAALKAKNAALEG

GCN2_T = assay: two-hybrid library CCmax
4H2898-AA = molecular target: T31, 4H2898-AA; assay: two-hybrid library CCmax; details: mean of both orientations
T31 chain: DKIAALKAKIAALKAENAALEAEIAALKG

4H1136-AA = molecular target: T32, 4H1136-AA; assay: two-hybrid library CCmax; details: mean of both orientations
T32 chain: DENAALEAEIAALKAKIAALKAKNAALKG

4H535-AA = molecular target: T33, 4H535-AA; assay: two-hybrid library CCmax; details: mean of both orientations
T33 chain: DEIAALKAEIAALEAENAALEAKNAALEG

Core_NNNN-es_KEKE = molecular target: T34, Core_NNNN-es_KEKE; assay: two-hybrid library CCmax; details: mean of both orientations
T34 chain: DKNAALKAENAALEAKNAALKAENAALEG

P2bH1 = molecular target: T35, P2bH1; assay: two-hybrid library CCNG1
T35 chain: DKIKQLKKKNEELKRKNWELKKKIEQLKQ

P7bH1 = molecular target: T36, P7bH1; assay: two-hybrid library CCNG1
T36 chain: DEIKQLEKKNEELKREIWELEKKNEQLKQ

P10bH1 = molecular target: T37, P10bH1; assay: two-hybrid library CCNG1
T37 chain: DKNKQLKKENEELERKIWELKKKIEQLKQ

P9bH1 = molecular target: T38, P9bH1; assay: two-hybrid library CCNG1
T38 chain: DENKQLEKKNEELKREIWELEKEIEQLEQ

P1bH1 = molecular target: T39, P1bH1; assay: two-hybrid library CCNG1
T39 chain: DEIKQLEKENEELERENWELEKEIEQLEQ

P3bH1 = molecular target: T40, P3bH1; assay: two-hybrid library CCNG1
T40 chain: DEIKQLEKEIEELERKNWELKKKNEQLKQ

P5bH1 = molecular target: T41, P5bH1; assay: two-hybrid library CCNG1
T41 chain: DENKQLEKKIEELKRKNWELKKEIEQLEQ

P11bH1 = molecular target: T42, P11bH1; assay: two-hybrid library CCNG1
T42 chain: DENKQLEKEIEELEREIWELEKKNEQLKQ

P12bH1 = molecular target: T43, P12bH1; assay: two-hybrid library CCNG1
T43 chain: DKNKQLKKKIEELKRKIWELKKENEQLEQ

P8bH1 = molecular target: T44, P8bH1; assay: two-hybrid library CCNG1
T44 chain: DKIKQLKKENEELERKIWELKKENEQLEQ

P6bH1 = molecular target: T45, P6bH1; assay: two-hybrid library CCNG1
T45 chain: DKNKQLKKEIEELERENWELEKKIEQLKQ

P4bH1 = molecular target: T46, P4bH1; assay: two-hybrid library CCNG1
T46 chain: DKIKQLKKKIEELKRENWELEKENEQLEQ

Core_NNIN-es_KKEE = molecular target: T47, Core_NNIN-es_KKEE; assay: two-hybrid library CCmax; details: mean of both orientations
T47 chain: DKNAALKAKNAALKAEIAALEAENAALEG

Core_NIIN-es_KKKK = molecular target: T48, Core_NIIN-es_KKKK; assay: two-hybrid library CCmax; details: mean of both orientations
T48 chain: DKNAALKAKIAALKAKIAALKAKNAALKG

Chain of 4H_GCN4 (chain, as listed by the source): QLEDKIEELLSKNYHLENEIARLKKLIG

B1: Core_NNNN-es_EEKK (peptide)
chain: DENAALEAENAALEAKNAALKAKNAALKG
- interaction score (Core_NNNN-es_KKEE): 0.234

B2: Core_INII-es_EKEE (peptide)
chain: DEIAALEAKNAALKAEIAALEAEIAALEG
- interaction score (Core_INII-es_KEKK): 1.83

B3: Core_INNN-es_EEKE (peptide)
chain: DEIAALEAENAALEAKNAALKAENAALEG
- interaction score (Core_INNN-es_KKEK): 1.84

B4: Core_INNI-es_EEKE (peptide)
chain: DEIAALEAENAALEAKNAALKAEIAALEG
- interaction score (Core_INNI-es_KKEK): 2.03

B5: Core_ININ-es_EEKK (peptide)
chain: DEIAALEAENAALEAKIAALKAKNAALKG
- interaction score (Core_ININ-es_KKEE): 2.03

B6: Core_IINN-es_EEEK (peptide)
chain: DEIAALEAEIAALEAENAALEAKNAALKG
- interaction score (Core_IINN-es_KKKE): 2.03

B7: P3SC1 (peptide)
chain: DEIQQLEEEISQLEYKNYALKAKNEELKR
- interaction score (P4SC1 [1]): 2.22
- interaction score (P4SC1 [2]): 1.43

B8: Core_IINN-es_EKKE (peptide)
chain: DEIAALEAKIAALKAKNAALKAENAALEG
- interaction score (Core_IINN-es_KEEK): 1.87

B9: Core_INNN-es_EEEE (peptide)
chain: DEIAALEAENAALEAENAALEAENAALEG
- interaction score (Core_INNN-es_KKKK): 2.18

B10: Core_INNN-es_EEEK (peptide)
chain: DEIAALEAENAALEAENAALEAKNAALKG
- interaction score (Core_INNN-es_KKKE): 2.01

B11: Core_INII-es_EKKK (peptide)
chain: DEIAALEAKNAALKAKIAALKAKIAALKG
- interaction score (Core_INII-es_KEEE): 2.08

B12: 4H1110-AA (peptide)
chain: DENAALEAEIAALKAENAALEAKIAALKG
- interaction score (4H2721-AA): -0.718
- interaction score (4H1802-AA): -1.32
- interaction score (4H355-AA): -0.0666
- interaction score (4H58-AA): 1.28
- interaction score (4H2750-AA): -0.176
- interaction score (4H3651-AA): -1.2
- interaction score (4H486-AA): 1.93
- interaction score (4H2600-AA): -1.01
- interaction score (4H1257-AA): -0.798
- interaction score (4H3705-AA): 2.63
- interaction score (4H140-AA): -1.14
- interaction score (4H1110-AA): 0.405
- interaction score (4H_APH): -1.53
- interaction score (4H_BCR): 0.0686
- interaction score (4H465-AA): -1.11
- interaction score (4H_GCN4): -0.932
- interaction score (4H3782-AA): -0.707
- interaction score (4H3365-AA): -1.2
- interaction score (4H3020-AA): 1.51
- interaction score (4H895-AA): 0.133
- interaction score (GCN2_T): -0.988
- interaction score (4H2898-AA): 1.96
- interaction score (4H1136-AA): -1.36
- interaction score (4H535-AA): -1.39

B13: Core_NNNN-es_EKEK (peptide)
chain: DENAALEAKNAALKAENAALEAKNAALKG
- interaction score (Core_NNNN-es_KEKE): -0.668

B14: P10bH1 (peptide)
chain: DKNKQLKKENEELERKIWELKKKIEQLKQ
- interaction score (P2bH1): -1.33
- interaction score (P7bH1): 0.654
- interaction score (P10bH1): 0.178
- interaction score (P9bH1): 1.04
- interaction score (P1bH1): 1.14
- interaction score (P3bH1): 1.35
- interaction score (P5bH1): -0.973
- interaction score (P11bH1): 0.862
- interaction score (P12bH1): -0.838
- interaction score (P8bH1): -0.375
- interaction score (P6bH1): 0.126
- interaction score (P4bH1): -0.889

B15: Core_NNIN-es_EEKK (peptide)
chain: DENAALEAENAALEAKIAALKAKNAALKG
- interaction score (Core_NNIN-es_KKEE): 1.83

B16: Core_NIIN-es_EEEE (peptide)
chain: DENAALEAEIAALEAEIAALEAENAALEG
- interaction score (Core_NIIN-es_KKKK): 1.68
